The assay deals with T1, CD4 on CD4 positive cells in human peripheral blood (human, UniProt P01730 26-458).
T1 construct: whole, on cells; also called CD4 molecules
The experiment in a line: cell adsorption from human whole blood on covalently immobilized binder (GMA grafted nonwoven fabric column); flow cytometry; mean ± SD of 3. How it is done: Immediately before the initiation of experiment, the PBS(−) solution was drained off by flowing air through the column. 5.0 ml of healthy human fresh blood containing ACD-A ([…] Laboratories) (blood:ACD-A=6.7:1) was fed from the inlet of the cell adsorber at a flow rate of 1.0 ml/min with a syringe pump. After discarding the first five drops, the treated blood was collected from the outlet of the column.
The CD4 positive cell removal rate at that time was calculated based on the change in the number of leukocytes measured by Coulter counter, and the change in the proportion of CD4 positive cells in the recovered cells measured by flow cytometry with use of a flow cytometer (FACS Calibur: Becton, Dickinson and Company). The cells were stained by the following manner. 100 μl of the collected blood was added with 10 μl of anti-CD4-PE solution (clone SK3, Becton, Dickinson and Company), 10 μl of anti-CD8-FITC solution (clone RPA-T8, Becton, Dickinson and Company), and 10 μl of anti-CD45-PerCP solution (Becton, Dickinson and Company). The resultant mixture was allowed to be stained at room temperature for 30 minutes, and then was added with 1 ml of FACS Lysing solution (Becton, Dickinson and Company) to effect hemolysis. CD45 positive cells were gated as leukocytes, and the proportion of CD4 positive cells therein was assayed.

B1: Leu3a scFv-Normal (scFv)
scFv: MADIVLTQSPASLAVSLGQRATISCKASQSVDYDGDSYMNWYQQKPGQPPKLLIYAASNLESGIPARFTGSGSGTDFTLNIHPVEEEDTATYYCQQSYEDPPTFAGGTNLEIKGGGGSGGGGSGGGGSMVHLQESEPELVKPGASVKMSCKASGYTFTDYVINWVKQRTGQGLEWIGETYTGSGSSYYNEKFKDKATLTVDKASNIAYMQLSSLTSEDSAVYFCARRGKGTGFAFWGQGTLVTVSAAAADYKDDDDKGSSEQKLISEEDLGSRSTHHHHHHGSTK
notes: Covalently immobilized on GMA grafted nonwoven fabric in the assay
Regarding B1, the “CD4 positive cell removal rate (%)” value was determined as 29.6%.

These data come from patent US20100069815A1 (ASAHI KASEI, published 2010).
